The text below walks through data of patent US20260159606A1 (VIB VZW, published 2026).

The target in assay [1] is T1, hPIV-3 hemagglutinin-neuraminidase (HN), expressed on transfected HEK293T cells (human parainfluenza virus 3 (hPIV-3), UniProt P08492 1-572).
T1 construct: also called hPIV-3 HN; HN3
T1 chain: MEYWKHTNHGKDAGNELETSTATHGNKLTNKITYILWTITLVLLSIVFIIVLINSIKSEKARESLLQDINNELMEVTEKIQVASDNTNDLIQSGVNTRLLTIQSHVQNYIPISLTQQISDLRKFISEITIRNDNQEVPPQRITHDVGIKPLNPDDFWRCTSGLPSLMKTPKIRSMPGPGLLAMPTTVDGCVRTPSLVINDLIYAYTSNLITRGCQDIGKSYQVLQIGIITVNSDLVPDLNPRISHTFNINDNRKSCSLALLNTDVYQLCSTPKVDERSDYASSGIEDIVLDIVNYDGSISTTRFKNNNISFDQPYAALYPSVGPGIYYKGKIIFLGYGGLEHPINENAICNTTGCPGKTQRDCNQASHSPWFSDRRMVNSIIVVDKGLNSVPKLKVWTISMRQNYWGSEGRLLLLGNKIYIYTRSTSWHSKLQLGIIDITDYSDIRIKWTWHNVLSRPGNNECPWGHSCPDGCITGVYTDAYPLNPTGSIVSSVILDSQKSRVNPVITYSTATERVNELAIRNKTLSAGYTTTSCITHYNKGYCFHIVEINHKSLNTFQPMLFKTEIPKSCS
Put plainly: flow cytometry on transfected HEK293T cells, 10 µg/ml (FIG. 16A).

Assay [2] addresses T2, D275N- and R277T-mutant hPIV-3 HN, expressed on transfected HEK293T cells (human parainfluenza virus 3 (hPIV-3), UniProt P08492 1-572).
T2 construct: also called mut HN3
T2 chain: T1 chain with D275N, R277T
Put plainly: flow cytometry on transfected HEK293T cells, VHH 1 or 0.1 µg/ml (FIG. 11C). (In general: Flow cytometry measures light scatter and fluorescence of single cells or particles in a stream.)

Assay [3] addresses HN of hPIV-3-GFP virus (on virions and on hPIV-3-infected cells) (human parainfluenza virus 3 (hPIV-3), UniProt P08492 1-572). The assay can be described thus: cell-based or functional assay.
In assay [4] the target is T3, recombinant hPIV-1 HN-tetraGCN4 (human parainfluenza virus 1 (hPIV-1), UniProt P16071 138-575).
T3 construct: domain: head domain; also called hPIV-1 HN linked to tetraGCN4; not shown: strep-tag II
Put plainly: ELISA, HN protein coated (50 ng), 1/3 dilution series (FIG. 18). A general note: In an ELISA, binding on a coated surface is turned into a signal by an enzyme label.

Assay [5] addresses T4, recombinant hPIV-3 HN-dGCN4 (human parainfluenza virus 3 (hPIV-3), UniProt P08492 136-572).
T4 construct: domain: head domain; also called hPIV-3 HN linked to dGCN4; not shown: strep-tag II
The assay is described as above.

Assay [6] concerns the target T5, recombinant hPIV-1 HN-dGCN4 (human parainfluenza virus 1 (hPIV-1), UniProt P16071 138-575).
T5 construct: domain: head domain; also called hPIV-1 HN linked to dGCN4; not shown: strep-tag II
The assay is described as above.

In assay [7] the target is T2, D275N- and R277T-mutant hPIV-3 HN, …. The assay can be described thus: flow cytometry on transfected HEK293T cells (FIG. 11C).
For assay [8], the target named is T1, hPIV-3 hemagglutinin-neuraminidase ….
For assay [9], the target named is T6, hPIV-3 fusion protein (F), expressed on transfected HEK293T cells (human parainfluenza virus 3 (hPIV-3), UniProt P06828 19-539).
T6 construct: whole, on cells
Put plainly: flow cytometry on transfected HEK293T cells (FIG. 4).

A word on the EC50: it is the concentration that produces a half-maximal response.

Positions count from the first letter of the chain named.

B1: humanized A2R3-60-60 bivalent construct version 1 (VHH)
chain: DVQLVESGGGLVQPGGSLRLSCAASGTTVSINGMGWYRQAPGKQREFVALSTTGGVTNYADSVKGRFTISRDNAKNTVYLQMNSLRPEDTAVYYCNAVASPSWGLYDDYWGQGTLVTVSSGGGGSGGGGSGGGGSEVQLVESGGGLVQPGGSLRLSCAASGTTVSINGMGWYRQAPGKQREFVALSTTGGVTNYADSVKGRFTISRDNAKNTVYLQMNSLRPEDTAVYYCNAVASPSWGLYDDYWGQGTLVTVSS
notes: also called A2R3-h60-60
On to B1, for which the binding result in assay [1] was “binds”.

B2: bivalent VHH A2R3-60-60 (VHH)
chain: QVQLQESGGGLVQPGGSLRLDCAASGTTVSINGMGWYRQAPGKQREFVALSTTGGVTNYADSVKGRFTISMDNAKKTVALQMNSLKPEDTAVYYCNAVASPSWGLYDDYWGQGTQVTVSSGGGGSGGGGSGGGGSQVQLQESGGGLVQPGGSLRLDCAASGTTVSINGMGWYRQAPGKQREFVALSTTGGVTNYADSVKGRFTISMDNAKKTVALQMNSLKPEDTAVYYCNAVASPSWGLYDDYWGQGTQVTVSS
notes: also called bivalent A2R3-60
On to B2, for which the binding result in [2] and in [1] was “binds” in each case. The “fold higher potency of hPIV-3-GFP neutralization than the monovalent counterpart” value (shortened to “fold higher potency”) in [3] was around 7.5 fold. The EC50 is 50 µg/mL in assay [4], 0.02 µg/mL in [5] and 167 µg/mL in assay [6].

B3: bivalent VHH A2R3-57-57 (VHH)
chain: QVQLQESGGGLVQPGGSLRLSCAASGSIFSTDAMGWYRQPPGKQRELVATITSGGSTNYVDSVKGRFTISRDNAKNTVYLQMNSLKPEDTAVYYCALHQTTGWGLYNDYWGQGTQVTVSSGGGGSGGGGSGGGGSQVQLQESGGGLVQPGGSLRLSCAASGSIFSTDAMGWYRQPPGKQRELVATITSGGSTNYVDSVKGRFTISRDNAKNTVYLQMNSLKPEDTAVYYCALHQTTGWGLYNDYWGQGTQVTVSS
notes: also called bivalent A2R3-57
Take B3: in [3], the “fold higher potency” value was around 150 fold. Moreover, the binding result in assay [7] is on record as “no binding (tested: 1 or 0.1 µg/ml)”.

B4: VHH A2R3-57 (VHH)
VHH: QVQLQESGGGLVQPGGSLRLSCAASGSIFSTDAMGWYRQPPGKQRELVATITSGGSTNYVDSVKGRFTISRDNAKNTVYLQMNSLKPEDTAVYYCALHQTTGWGLYNDYWGQGTQVTVSS
notes: also called 2AR-57
For B4, in [8], the “fold reduction of binding at 500 µg/ml of zanamivir” value (shortened to “fold reduction of binding”) was around 5 fold. Besides, the figures for the binding result in assay [9] and in assay [7] were “no binding (tested: 1 µg/ml)” and “no binding (tested: 1 or 0.1 µg/ml)”, respectively.

B5: VHH A2R3-60 (VHH)
VHH: QVQLQESGGGLVQPGGSLRLDCAASGTTVSINGMGWYRQAPGKQREFVALSTTGGVTNYADSVKGRFTISMDNAKKTVALQMNSLKPEDTAVYYCNAVASPSWGLYDDYWGQGTQVTVSS
notes: also called 2AR3-60
Turning to B5, the “fold reduction of binding” value in assay [8] came to 1.5 fold. For the same molecule, the binding result is on record as “no binding (tested: 1 µg/ml)” in [9] and “binds” in assay [2].

B6: humanized A2R3-59-Fc construct version 1 (Fc fusion)
chain: DVQLVESGGGLVQPGGSLRLSCAASGSISGINGMGWYRQAPGKQRELVAAITSGGSTNYADSVKGRFTISRDNAKNTVYLQMNSLRPEDTAVYYCYVSSTPSWGLYDDYWGQGTLVTVSSGGGGSGGGGSDKTHTCPPCPAPEAAGGPSVFLFPPKPKDTLMISRTPEVTCVVVDVSHEDPEVKFNWYVDGVEVHNAKTKPREEQYNSTYRVVSVLTVLHQDWLNGKEYKCKVSNKALGAPIEKTISKAKGQPREPQVYTLPPSRDELTKNQVSLTCLVKGFYPSDIAVEWESNGQPENNYKTTPPVLDSDGSFFLYSKLTVDKSRWQQGNVFSCSVMHEALHNHYTQKSLSLSPG
notes: also called h59-Fc; A2R3-h59-Fc
On to B6, for which the binding result in assay [1] is “binds”.

B7: VHH A2R3-59 (VHH)
VHH: QVQLQESGGGLVQPGGSLRLSCAASGSISGINGMGWYRQAPGKQRELVAAITSGGSTNYADSVKGRFTISRDNAKNTVDLQMNSLQPEDTAVYYCYVSSTPSWGLYDDYWGQGTQVTVSS
notes: also called 2AR3-59
With B7, in assay [8], the “fold reduction of binding” value was found to be 2.4 fold. Also, the binding result in assay [9] is reported as “no binding (tested: 1 µg/ml)”; in assay [2], “binds”.

B8: humanized A2R3-60-Fc construct version 1 (Fc fusion)
chain: DVQLVESGGGLVQPGGSLRLSCAASGTTVSINGMGWYRQAPGKQREFVALSTTGGVTNYADSVKGRFTISRDNAKNTVYLQMNSLRPEDTAVYYCNAVASPSWGLYDDYWGQGTLVTVSSGGGGSGGGGSDKTHTCPPCPAPEAAGGPSVFLFPPKPKDTLMISRTPEVTCVVVDVSHEDPEVKFNWYVDGVEVHNAKTKPREEQYNSTYRVVSVLTVLHQDWLNGKEYKCKVSNKALGAPIEKTISKAKGQPREPQVYTLPPSRDELTKNQVSLTCLVKGFYPSDIAVEWESNGQPENNYKTTPPVLDSDGSFFLYSKLTVDKSRWQQGNVFSCSVMHEALHNHYTQKSLSLSPG
notes: also called A2R3-h60-Fc; h60-Fc
Turning to B8, the EC50 in assay [4] was 71 µg/mL; in [5], 0.018 µg/mL; in assay [6], 32 µg/mL. The binding result in [1] is “binds”.

B9: bivalent VHH A2R3-55 (VHH)
chain: QVQLQESGGGLVQAGGSLRLSCAASGSIDRIDAMGWSRQAPGKQRELVATITTGGITNYAVSVKGRFTISRDNAKNTVYLQMNSLKPEDTAVYYCNAQGAPSWGLYEDYWGQGTQVTVSSGGGGSGGGGSGGGGSQVQLQESGGGLVQAGGSLRLSCAASGSIDRIDAMGWSRQAPGKQRELVATITTGGITNYAVSVKGRFTISRDNAKNTVYLQMNSLKPEDTAVYYCNAQGAPSWGLYEDYWGQGTQVTVSS
notes: also called bivalent A2R3-55
In the case of B9, the “fold higher potency” value in [3] is around 50 fold. Also, the binding result in [7] is reported as “no binding (tested: 1 or 0.1 µg/ml)”.

B10: humanized A2R3-59-59 bivalent construct version 1 (VHH)
chain: DVQLVESGGGLVQPGGSLRLSCAASGSISGINGMGWYRQAPGKQRELVAAITSGGSTNYADSVKGRFTISRDNAKNTVYLQMNSLRPEDTAVYYCYVSSTPSWGLYDDYWGQGTLVTVSSGGGGSGGGGSGGGGSEVQLVESGGGLVQPGGSLRLSCAASGSISGINGMGWYRQAPGKQRELVAAITSGGSTNYADSVKGRFTISRDNAKNTVYLQMNSLRPEDTAVYYCYVSSTPSWGLYDDYWGQGTLVTVSS
notes: also called A2R3-h59-59
With B10, the binding result in assay [1] is “binds”.
